Target: NMDA receptor NR1-1a subunit, full length (rat)
Test: co-IP

- Csk co-precipitated with NR1 after PP2 (10 μM), percent of that without PP2: 48%
Substance: C-terminal Src kinase (Csk) (from UniProt P41240 1-450) (enzyme)

From PMC3032389
